Assay results from US20050118601A1, “Enhancer sequence of the 5-aminolevulinic acid synthase gene” (priority 2002, published 2005).

Columns and labels:
[1] = target: T1, PXR (Homo sapiens, UniProt O75469 O75469:1-434); assay: EMSA; PXR alone; settings: tags: TNT reticulocyte lysate; label: radiolabel
T1 sequence: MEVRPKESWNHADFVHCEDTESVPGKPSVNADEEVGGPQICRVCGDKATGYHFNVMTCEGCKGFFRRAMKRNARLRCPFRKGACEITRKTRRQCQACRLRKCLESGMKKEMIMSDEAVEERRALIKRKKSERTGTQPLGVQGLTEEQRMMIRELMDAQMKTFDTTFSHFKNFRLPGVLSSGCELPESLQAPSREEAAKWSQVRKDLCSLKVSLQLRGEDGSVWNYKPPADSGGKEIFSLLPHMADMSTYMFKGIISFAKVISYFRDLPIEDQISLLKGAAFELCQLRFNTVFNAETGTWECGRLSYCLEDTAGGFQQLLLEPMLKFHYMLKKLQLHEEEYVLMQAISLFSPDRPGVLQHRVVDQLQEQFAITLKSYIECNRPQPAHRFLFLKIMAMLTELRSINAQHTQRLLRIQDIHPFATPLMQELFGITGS
From the text: (§1) FIG. 19 depicts the results of an electrophoretic mobility shift assay, assaying the ability of human PXR and human CAR to bind to the hA174 and hA240 elements. Binding of these nuclear receptors happens in a heterodimeric state with the human 9-cis retinoic acid receptor RXRα. From expression plasmids encoding human RXRα, […] or CAR, receptor protein was made in vitro using the TNT reticulocyte lysate coupled transcription/translation system (Promega Corp.).
(§2) Lanes 1-4: Wildtype hA174 was incubated with no receptor (mock transcription/translation) or with RXRα, PXR or CAR alone. No complex is observed using single receptors. Lanes 5 and 7: Wild-type hA174 was incubated with RXRα and PXR or RXRα and CAR, upon which complex formation between radiolabeled probe and protein is observed. Lanes 6 and 8: Same conditions as in lanes 5 and 7, but instead of wild-type hA174, a radiolabeled probe was used where the half-site 2 was mutated. No complex is formed anymore.

[2] = target: RXRalpha (Homo sapiens, UniProt P19793 P19793:1-462); assay: EMSA; RXRalpha alone; settings: tags: TNT reticulocyte lysate; label: radiolabel
From the text: as §1, §2

[3] = target: T2, CAR (Homo sapiens, UniProt Q14994 Q14994:1-352); assay: EMSA; CAR alone; settings: tags: TNT reticulocyte lysate; label: radiolabel
T2 sequence: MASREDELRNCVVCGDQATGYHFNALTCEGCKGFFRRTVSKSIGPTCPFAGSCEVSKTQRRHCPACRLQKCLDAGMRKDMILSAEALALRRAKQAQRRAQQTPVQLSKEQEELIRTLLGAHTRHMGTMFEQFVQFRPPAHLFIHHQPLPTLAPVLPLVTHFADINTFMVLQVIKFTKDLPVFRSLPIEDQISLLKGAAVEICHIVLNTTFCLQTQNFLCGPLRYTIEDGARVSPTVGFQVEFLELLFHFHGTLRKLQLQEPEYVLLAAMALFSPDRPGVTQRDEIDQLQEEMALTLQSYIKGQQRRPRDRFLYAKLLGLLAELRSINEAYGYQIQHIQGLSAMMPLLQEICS
From the text: as §1, §2

[4] = target: CAR/RXRalpha heterodimer (Homo sapiens, UniProt Q14994;P19793 Q14994:1-352,P19793:1-462); assay: EMSA; settings: tags: TNT reticulocyte lysate; label: radiolabel
From the text: as §1, §2

[5] = target: PXR/RXRalpha heterodimer (Homo sapiens, UniProt O75469;P19793 O75469:1-434,P19793:1-462); assay: EMSA; settings: tags: TNT reticulocyte lysate; label: radiolabel
From the text: as §1, §2

[6] = target: T3, CXR/RXR heterodimer (Gallus gallus, UniProt A0A8V1AGS4;P28701 A0A8V1AGS4:1-375,P28701:1-467); assay: EMSA; supershifted by anti-RXR; 40 mM KCl, pH 8.0, poly(dI-dC), room temperature; settings: tags: TNT T7 Quick Coupled; pSG5; label: 32P
Method: (§3) Radiolabelled ADRES wild type (lanes 1-5) and mutant. (lanes 6-7) sequences were incubated With in vitro transcribed/translated CXR (lanes 3-7), chicken RXR (lanes 2 and 4-7) and anti-RXR antibody (Lane 5 and 7), as indicated. Arrows depict the unbound probe, the shifted CXR-RXR-probe complex, and the supershifted CXR-RXR-probe-anti-RXR antibody complex;
(§4) Chicken CXR and RXR proteins were expressed using the TNT T7 Quick Coupled Translation System (Promega) according to the manufacturers protocol. Probes were labeled by Klenow reaction in the presence of radiolabeled [α-³²P]ATP and purified over a Biospin 6 chromatography column. A volume of labeled oligonucleotide corresponding to 100,000 cpm was used for each reaction in 10 mM Tris-HCL (8.0)/40 mM KCl/0.05% Nonidet P40′/6% glycerol (vol./vol.)/1 mM DTT containing 0.2 μg of poly(dI-dC) and 2.5 μl in-vitro synthesized proteins as described previously (2, 7). To test for supershifts, 0.5 μl monoclonal anti-mouse-RXR rabbit antibody (kindly provided by P. Chambon, Université Louis Pasteur, Illkirch, France) were added to the reaction mix. This antibody has been previously tested for interactions with chicken RXR in Western blots (data not shown). The reaction mix was incubated for 20 min at room temperature and electrophoresed on a 6% polyacrylamide gel in 0.5× Tris/borate/EDTA buffer followed by autoradiography.

[7] = target: T4, RXR (Gallus gallus, UniProt P28701 P28701:1-467); assay: EMSA; RXR alone; settings: tags: TNT T7 Quick Coupled; pSG5; label: 32P
T4 sequence: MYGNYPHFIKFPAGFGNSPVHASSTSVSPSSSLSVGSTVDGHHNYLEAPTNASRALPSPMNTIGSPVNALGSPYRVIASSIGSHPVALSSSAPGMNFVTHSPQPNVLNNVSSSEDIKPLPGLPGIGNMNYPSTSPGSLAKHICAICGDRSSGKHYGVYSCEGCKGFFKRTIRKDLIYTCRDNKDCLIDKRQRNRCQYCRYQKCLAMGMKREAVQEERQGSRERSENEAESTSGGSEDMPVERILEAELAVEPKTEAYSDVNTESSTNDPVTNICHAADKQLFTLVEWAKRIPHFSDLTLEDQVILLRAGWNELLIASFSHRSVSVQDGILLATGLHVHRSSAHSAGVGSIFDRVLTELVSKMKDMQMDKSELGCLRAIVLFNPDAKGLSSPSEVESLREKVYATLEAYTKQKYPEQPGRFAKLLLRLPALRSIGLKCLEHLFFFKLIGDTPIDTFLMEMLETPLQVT
Method: as §3, §4

[8] = target: T3, CXR/RXR heterodimer; assay: EMSA; binding virtually eliminated; settings: tags: TNT T7 Quick Coupled; pSG5; label: 32P
Method: as §3, §4

[9] = target: T4, RXR; assay: EMSA; RXR alone; settings: tags: TNT T7 Quick Coupled; pSG5; label: 32P; remark: listed apart in the source
Method: as §3, with “mutant” for “mutant.”, “with” for “With”, “(lane” for “(Lane”
as §4

[10] = target: T3, CXR/RXR heterodimer; assay: EMSA; supershifted by anti-RXR; settings: tags: TNT T7 Quick Coupled; pSG5; label: 32P
Method: as §3, with “mutant” for “mutant.”, “with” for “With”, “(lane” for “(Lane”
as §4

T3 sequence (chain, as listed by the source): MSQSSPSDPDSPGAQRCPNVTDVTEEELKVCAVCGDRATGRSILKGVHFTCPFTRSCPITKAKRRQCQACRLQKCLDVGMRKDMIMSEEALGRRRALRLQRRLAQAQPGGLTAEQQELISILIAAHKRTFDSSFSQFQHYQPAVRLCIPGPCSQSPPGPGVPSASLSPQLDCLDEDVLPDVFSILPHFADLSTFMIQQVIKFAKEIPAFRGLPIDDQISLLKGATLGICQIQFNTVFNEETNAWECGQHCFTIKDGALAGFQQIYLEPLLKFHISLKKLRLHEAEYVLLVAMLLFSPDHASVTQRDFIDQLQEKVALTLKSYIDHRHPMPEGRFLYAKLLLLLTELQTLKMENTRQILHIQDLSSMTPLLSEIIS

B1: hA174 (dsDNA)
DNA 1: GCGCAAAGTCAACACAAGCCTCTCCACCGTGTGTCCATGTTTATGTGTATGCGCTGTGCCCCGTCATGCCACCTGGACGCAGGGACTCCAGTGACCTCTCCTTGCACAAGCCTCTGCTGGTTTGGGAAAGATTGGCATGACATCAGCCAAGCTCTGGCCTTGCCTTTTTTCCCT
DNA 2: AGGGAAAAAAGGCAAGGCCAGAGCTTGGCTGATGTCATGCCAATCTTTCCCAAACCAGCAGAGGCTTGTGCAAGGAGAGGTCACTGGAGTCCCTGCGTCCAGGTGGCATGACGGGGCACAGCGCATACACATAAACATGGACACACGGTGGAGAGGCTTGTGTTGACTTTGCGC
- binding result [1]: no binding
- binding result [2]: no binding
- binding result [3]: no binding
- binding result [4]: binds
- binding result [5]: binds

B2: 176 bp ADRES (dsDNA)
DNA 1: GGGCTCCATCGGCCTCTTCAGGTTATTGCTATGTTCAACTCGTGTGACCTTCCTCCCTGTTTTCAAGGTTCTGATAACAAACTTCTAGGACAGCCTGGTGACCTTTGGCTCAGCTTCCTCTTTAAACTCCGGTGGCTTTTGCTTCATTGCCTAGTTGTTACCCAGCAGTAAAGATC
DNA 2: GATCTTTACTGCTGGGTAACAACTAGGCAATGAAGCAAAAGCCACCGGAGTTTAAAGAGGAAGCTGAGCCAAAGGTCACCAGGCTGTCCTAGAAGTTTGTTATCAGAACCTTGAAAACAGGGAGGAAGGTCACACGAGTTGAACATAGCAATAACCTGAAGAGGCCGATGGAGCCC
- binding result [6]: binds
- binding result [7]: no binding

B3: 176 bp ADRES DR4-1/DR5 double mutant (dsDNA)
DNA 1: GGGCTCCATCGGCCTCTTCAGGTTATTGCTATGTTGGTATCGTGTCGAGTTCCTCCCTGTTTTCAAGGTTCTGATAACAAACTTCTAGGACAGCCTGGCTGCAGTTGGCGAATTCTCCTCTTTAAACTCCGGTGGCTTTTGCTTCATTGCCTAGTTGTTACCCAGCAGTAAAGATC
DNA 2: GATCTTTACTGCTGGGTAACAACTAGGCAATGAAGCAAAAGCCACCGGAGTTTAAAGAGGAGAATTCGCCAACTGCAGCCAGGCTGTCCTAGAAGTTTGTTATCAGAACCTTGAAAACAGGGAGGAACTCGACACGATACCAACATAGCAATAACCTGAAGAGGCCGATGGAGCCC
- binding result [8]: no binding

B4: 167 bp ADRES (dsDNA)
DNA 1: CTGCCTCCAGTCCTGAACTTTCTCTGCTGGGATGAGCAGAGTTCACGCTCGGCTGAACTCGTGACTGTGTCAACAGGGGGCATGAAGATCAGCACCAGGCAAAGGTGAGCGGAGTGCACAAGAATGAGGCAGAGACCTTTGGGACAAAGAGTTCCCCACCCGTGGGG
DNA 2: CCCCACGGGTGGGGAACTCTTTGTCCCAAAGGTCTCTGCCTCATTCTTGTGCACTCCGCTCACCTTTGCCTGGTGCTGATCTTCATGCCCCCTGTTGACACAGTCACGAGTTCAGCCGAGCGTGAACTCTGCTCATCCCAGCAGAGAAAGTTCAGGACTGGAGGCAG
- binding result [9]: no binding
- binding result [10]: binds
